Reference: article PMC9474881

Target: PsgIBP_L, larger (28 kDa) ice-binding protein isoform from Psychromyces glacialis (Psychromyces glacialis)
Test: SEC; analytical Superose12 column, 20 mM Tris-HCl pH 8.0 + 500 mM NaCl, 0.8 ml/min, 4 °C; 0.5 mL of 1 mg/ml protein loaded; molecular weight from a calibration line with five reference proteins

Substance: PsgIBP_L, larger (28 kDa) ice-binding protein isoform from Psychromyces glacialis (natural protein)
- stoichiometry N: 2
